According to the DeepSol protein solubility set:

Experiment: soluble on expression in E. coli; label from the status in PepcDB or PDB records

Sequence	soluble on expression in E. coli
MTALGLIETKGLLAAVEAADAMLKAADVRLLEKNLASGGLVTITVAGEVSAVRAAVDAGVSAIRRVNAASLVSEHVIARPDEGVSRVVSLVPPAAVPPAAPPVQAPAGDSGAQQPVQEAAEAEPQTGSTVEEQTPAAVEASPAPAAAAPRTETVRYEISQLKKMNVSRLRQVARGVSGLSIPREAVKSANKKDLIDAIINSYRQIEE	not soluble
MKIVIAPDSFKESLTAQQVAEAIKRGFQQSIADVECLLCPVGDGGEGTVDAIRHSLDLEEKCLQVTGSFGQKEVMRYFQKEQLALFEVADLVGLGKIPLEKRNPLQIQTRGIGELIRHLISQEIKEIYIGVGGTASNDGGIGIAAGLGYQFYDEDGNALPACGQSLLNLASVSTENRYKIPEDVHIRILADVVSPLCGHQGATYTFGKQKGLDSTMFEVVDQAIQDFYEKVSPATLKLKGAGAGGGIAGGLCAFAQASIVSGIDTCLDLIDFDKKVSDVDLVIVGEGRLDRQSLAGKAPIGVAKRTPVGVPVVAICGSLVEDLPSLPFENIQAAFSILEKSEPLEDSLKNASLYLEHTASNIGHLLNMPKI	soluble
MSLYEITQYRLPHLSESAEALCHADKRPVFVGDSAAKPGLQLQQDETRWHSARQHRWSTPLAHQLQRSVQRLLLADNCEGKLTVWVDDFYGSNDSRAVVAGHWEYKSQDSQTVLKGTFTESTPLKSDGYPALVNALDEAWLNVMDTISLGVGQKLAREGHHHHHH	soluble
MRPDDAIELFNSCRGHCIERQNYIENLQKRHVRKNRNVSAPRTDGLEDSADPTEQVYTNNKPVKKKPRKNRRGGHLAPSQHFQHQTQSSPYSLRKWSQNQSVYQRGLVPPPGPAGEDYSQRRFFWSARPNKWTAESYQRPFYPYYWEWNL	not soluble
MYRISQLAELVGLSRTTLLYYEKLGLIKGERLNNGYRQYSEKDAQRLVLLQNLQAGGLTLKECQACLDAKVNREVLVERLEQLDQEIEQKQNSRQLLAALLGESSLTDWHESLDQLAPEAHIEWLMKQGFDEKQAMRLKWLSKDMNEHERYMQDFDLIFKELERWGPGSESDTLKALQKVPNKSMTLLEIGCGQGIATELFARHTDAMITAVDNEEFALKHLMEKMQQNGLEDKITTVCADMAKMPFETKSFDLIWSEGSAYIMGVQNALKAWKPLLSEDGVLVVSDLVWSTDKPSEGALSFWKKEYPDMVSVSERIKHAQQAGYEVIEHFSLSDAAWEAYYHPLIERLDTLKDKLIDSPVLIDFENEITAFKQRANEFDYEIFILRSR	not soluble
MGSDKIHHHHHHMKIKNDLIYDEIHALKADLYQPDNASKGLIIDIHGGGWFRGDKAKDQDLAEALVKDGFSVIVPNYRLTPDAYYPAPLDDMDTLYHWIKTSSKLFDSDRIAVVGSSAGGNMAVEMGIKYGLPIVSLSGILDIDDWLNEHTAVIAQPDHKQDFTNSKSSEINQTGQNDAFYKWFVTNYFNGNSDQYSLATPYKHVNSQPGPMFLANSLNEFVPTSGVLEMAKILTSKNVPYVEWMLPGTQHAKGYLEIVYPTVLNFLNQYI	not soluble
MNYMELYDVDEFWKFQMKVGLVKKAEKIKRTKKLIKLIVDFGNEERTIVTGIADQIPPEELEGKKFIFVVNLKPKKFSGVESQGMLILAETEDGKVYLIPVPEEVPVGARVW	soluble
MTEQTILMGNLNEVAKKAAQWLINRKPIKSIIDWGISFSLWPPHFTTSCCGTEFGAFAAARFDAERYGMLPFSSARQSNILILEGTLSRKMGRAARIVYDQMPEPKYVIALGACILEGGIFWNSYNTVLPSDIGIPVDLYVPGCPIRPEAVARAVLMLQKKIRTQGALKT	not soluble
MTDQLRLMAVHAHPDDESSKGAATMAKYVSEGVDVLVVTCTGGERGSILNPKLQGDAYIEENIHEVRRKEMDEAREILGVGQEWLGFVDSGLPEGDPLPPLPEGCFALEDVDKAAGELVRKIRSFRPQVITTYDENGGYPHPDHIMTHKITMVAFEGAADTEKYPESEYGTAYQPLKVYYNQGFNRPRTEALHHALLDRGLESPYEDWLKRWSEFERKERTLTTHVPCADFFEIRDKALIAHATQIDPEGGWFRVPMEIQKEVWPTEEYELAKSLVETSLPEDDLFAGIRDNALEHHHHHH	not soluble
MIVNDSVVIHASRDIAADAAGNISVTTADLKVSVMLRVADKPERATAQLVFRALSEVEAFKMRVADEVERLQHSFEQDFETRHRELDQEVARAAEDTIAHRLLERREYVNLRAIERNDDNIILRVTGGVWVGTELYLLFEIQNRDSTPYHLDRVRVVGAGEERAGAVAFEDRTYPEGGSMGSIASGQRGRGIVAVRNARQLAGQPVRLIVSEARERRAVSVGDIRWR	not soluble
MHGLNKDIIFPLQIFALSNNVLYNFPEQGVVPVLYVIYAQDKADSLEKRLSVRPAHLARLQLLHDEGRLLTAGPMPAVDSNDPGAAGFTGSTVIAEFESLEAAQAWADADPYVAAGVYEHVSVKPFKKVF	not soluble
SPLKFELCPGRMIGGNNPCFIIAEIGQNHQGDIEIAKKMIKMAKDCGADCAKFQKSELEYKFNKKALERPYTSKHSWGKTYGEHKRHLEFSHEQYRELQQYAKQVGIFFTASGMDEMAVEFLHELDVPFFKVGSGDTNNFPYLKKTAQKGRPMVVSSGMQSMETMQHVYKIVKEHNQNFCILQCTSAYPLEPEDVNLRVITEYQKEFPDIPIGYSGHESGINITVGAVALGAKVVERHVTLDKSWKGSDHAASLEPEELAELVRSIRIVERALGTGLKRMLPCEVPCHDKLGKSVVAKTSIPKGTELTLDMLAVKVAEPKGVAPEEIFQLVGKKVTTDVEEDESITEDVVDSYGKKAKA	soluble
SGQKASQQVAPKDSQEVLAMCEVVSAAISHAAQKLKEYLGFEYPLSRLCLAASSLTEVFLVHFVTFCQERGADEWLTTTKMTKHQAWLFGADWIWTFWGPDKEIRLQVAVQTLRMASLPLTDPKSCESRGEESWKKGRFDKLQEFCNLVGEDCLGLFIIFGVPGEPKAIRGVVLESVRNGMMESQLPGRKAVEQFVLETKDCVSIKELLGNCLSKRDGLSDMGRVYIRIL	soluble
MARKKKTRRITDIMPIRKADKKIDITKARSGKKLTCYELDAKAREDKKKRKHKGLASGSRHSAVEEKANKLQNEIKDPKIGSKKKIPLVVEFVNKPEKGQVIPVIKQVKKQDPMKELENLENNEILNELLDALDAGKTISKSDQQFVDECLDRISELMEELGIEDEDESEDDLYRTFERMDINQFR	not soluble
MSNVYVMALDFGNGFVKGKINDEKFVIPSRIGRKTNENNQLKGFVDNKLDVSEFIINGNNDEVLLFGNDLDKTTNTGKDTASTNDRYDIKSFKDLVECSIGLLAREVPEEVVNVVIATGMPSNEIGTDKQAKFEKLLNKSRLIEIDGIAKTINVKGVKIVAQPMGTLLDLNMENGKVFKAFTEGKYSVLDFGSGTTIIDTYQNMKRVEEESFVINKGTIDFYKRIASHVSKKSEGASITPRMIEKGLEYKQCKLNQKTVIDFKDEFYKEQDSLIEEVMSNFEITVGNINSIDRIIVTGGGANIHFDSLSHYYSDVFEKADDSQFSNVRGYEKLGELLKNKVEQESKRGSHHHHHH	soluble
MIDMFPMEKGEEQETYELIVRVFHKYVAPVYSENGVARFLGMLSPEGLSEMNNGKNSFVIVARDQSKIIGMISVINDSHIALFFVSPRYQGKGIGKNILDEAIKNCLNRNPELSAVTVSSSPNSKSFYEEAGFEVIGLEHHHHHH	soluble
MKIFENIEDVKAIRKKTGLNQIDFWGKVGVTQSGGSRYETGRKMPKPVRELLRLVHIECIDLAKVNKKDMEIAALLKKHHPDLYAELSKQTKSERKKQS	not soluble
SLSKKSVQTLEDIARLANVSRSTVSRALNNSPLISKQTRERIQAIAREHNFCLNVSGRNLRLRSSRTIAFVAPMCFPPVASAEHLFGLEMLGAIWSGLHELNYDCLIVHSASQDTDWVHRYLHSGRVDGFILMESSFKQTQIEALVQMKVPFIVWGMPVSPFNYCSVTGDNVAGGRLATEYLIRTGRQRIAFLGGLKGTLTVENRFKGYEQALQLAGRALDPALIVYGDYTYASGAAGMQRLLERAPDLDAVFVNSDLMAIAAINVIQESGRSVPADIAVVGYDDLSIAGYATLPLTTIRQNIPLAGKLLAQNLIQHIETGLVTNVTVPVELVIRKSEG	not soluble
